These results are taken from paper PMC8891371.

Assay [1] has as its target axolotl Melanocortin-3 receptor, N-terminally 3×HA tagged (Ambystoma mexicanum (Mexican axolotl)).
The target of assay [2] is axolotl Melanocortin-4 receptor, N-terminally 3×HA tagged (Ambystoma mexicanum (Mexican axolotl)).

“human adrenocorticotropin ACTH (1–24) (peptide)”: in assay [1], the cAMP luminescent assay (pCRE-Luc, Dual-Glo) in HEK293T, logEC50; MC3R:MRAP2 plasmid ratio 1:0 is -9.51 log M; the cAMP luminescent assay (pCRE-Luc, Dual-Glo) in HEK293T, logEC50; MC3R:MRAP2 plasmid ratio 1:1 is -9.47 log M; the cAMP luminescent assay (pCRE-Luc, Dual-Glo) in HEK293T, logEC50; MC3R:MRAP2 plasmid ratio 1:3 is -9.4 log M; the cAMP luminescent assay (pCRE-Luc, Dual-Glo) in HEK293T, logEC50; MC3R:MRAP2 plasmid ratio 1:6 is -9.55 log M. Further, in assay [2], the cAMP luminescent assay (pCRE-Luc, Dual-Glo) in HEK293T, logEC50; MC4R:MRAP2 plasmid ratio 1:0 was -9.62 log M; the cAMP luminescent assay (pCRE-Luc, Dual-Glo) in HEK293T, logEC50; MC4R:MRAP2 plasmid ratio 1:1 is -10.1 log M; the cAMP luminescent assay (pCRE-Luc, Dual-Glo) in HEK293T, logEC50; MC4R:MRAP2 plasmid ratio 1:3 was -10.1 log M; the cAMP luminescent assay (pCRE-Luc, Dual-Glo) in HEK293T, logEC50; MC4R:MRAP2 plasmid ratio 1:6 was -10.3 log M.

Consider “Human α-melanocyte stimulating hormone (peptide)”, for which, in assay [1], the cAMP luminescent assay (pCRE-Luc, Dual-Glo) in HEK293T, logEC50; MC3R:MRAP2 plasmid ratio 1:0 is -9.95 log M; the cAMP luminescent assay (pCRE-Luc, Dual-Glo) in HEK293T, logEC50; MC3R:MRAP2 plasmid ratio 1:1 is -9.29 log M; the cAMP luminescent assay (pCRE-Luc, Dual-Glo) in HEK293T, logEC50; MC3R:MRAP2 plasmid ratio 1:3 was -9.04 log M; the cAMP luminescent assay (pCRE-Luc, Dual-Glo) in HEK293T, logEC50; MC3R:MRAP2 plasmid ratio 1:6 is -8.98 log M. In assay [2], the cAMP luminescent assay (pCRE-Luc, Dual-Glo) in HEK293T, logEC50; MC4R:MRAP2 plasmid ratio 1:0 was -9.84 log M; the cAMP luminescent assay (pCRE-Luc, Dual-Glo) in HEK293T, logEC50; MC4R:MRAP2 plasmid ratio 1:1 was -10 log M; the cAMP luminescent assay (pCRE-Luc, Dual-Glo) in HEK293T, logEC50; MC4R:MRAP2 plasmid ratio 1:3 is -9.37 log M; the cAMP luminescent assay (pCRE-Luc, Dual-Glo) in HEK293T, logEC50; MC4R:MRAP2 plasmid ratio 1:6 was -9.06 log M.
